Assay [1] concerns the target fibrinogen (species not stated).
Assay [2] has as its target human fibrinogen (in citrated whole blood, plasma or platelet-rich plasma) (human) (UniProt P02671).
Assay [3] concerns the target fibrinogen (species not stated). This is another data set of the same source.
Assay [4] has the same target. The source holds these as a separate data set.

The source of these data is patent US5977056.

Take “posterior gland hementin (Haementeria ghilianii) (enzyme)”: the Specific Activity (Units/mg), Stage II material in assay [1] is 11500 Units/mg.
As for “purified hementin (gland of origin not stated for the experiment) (enzyme)”, in assay [2], the deaggregation of pre-formed ADP-induced platelet aggregates (aggregometer) was 3 min and the loss of coagulability of platelet-rich plasma with thrombin is 10 min. For the same substance, the fibrinogenolysis assay: fibrinogen breakdown products on HPLC (RP300-C8) in assay [3] came to 90%.
On to “anterior gland hementin (Haementeria ghilianii) (enzyme)”, for which, in assay [4], the Specific Activity (Units/mg), Stage III material came out at 1400 Units/mg.
